Source: patent US20210063414A1, “METHODS FOR PREVENTING AND/OR TREATING BONE LOSS CONDITIONS BY MODULATING IRISIN” (Dana-Farber Cancer Institute, Inc., priority 2018, published 2021)

Tests used:
Assay in all cases: Crosslinking/co-immunoprecipitation/mass spectrometry (TMT quantitative proteomics) to identify irisin receptors
Type in all cases: binding
[1] = biological target: T1, MLO-Y4 cell surface proteins (Mus musculus, UniProt E9Q0C6); conditions: co-precipitated protein Gm14569 (E9Q0C6_MOUSE)
T1 construct: endogenous in cells; host or cells: MLO-Y4
Summary of the method: (§1)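 Relative protein abundance came from 6-plex TMT MS3 quantitation on an Orbitrap Fusion Lumos, after in-gel trypsin digestion of Coomassie-stained SDS-PAGE lanes. Input was a Ni-NTA pulldown (250 mM imidazole elution) of lysates from murine MLO-Y4 cells. These cells were treated on ice with His-tagged irisin or adipsin (10 nM, 20 min) in serum-free medium, then crosslinked with 1.5 mM DTSSP for 30 min.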

[2] = biological target: T2, MLO-Y4 cell surface proteins (Mus musculus, UniProt P35762); conditions: TMT ratio, Cd81 CD81 antigen
T2 construct: endogenous in cells; host or cells: MLO-Y4
T2 sequence (P35762 1-236): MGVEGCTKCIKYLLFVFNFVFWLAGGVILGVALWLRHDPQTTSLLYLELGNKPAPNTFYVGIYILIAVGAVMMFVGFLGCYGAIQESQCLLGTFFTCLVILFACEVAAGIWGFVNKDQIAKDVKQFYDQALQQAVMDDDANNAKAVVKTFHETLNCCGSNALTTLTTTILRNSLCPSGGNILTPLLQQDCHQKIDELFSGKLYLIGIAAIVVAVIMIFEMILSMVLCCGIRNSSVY
Summary of the method: as §1

[3] = biological target: T3, MLO-Y4 cell surface proteins (Mus musculus, UniProt Q8VCI5); conditions: co-precipitated protein Pex19 (PEX19_MOUSE)
T3 construct: endogenous in cells; host or cells: MLO-Y4
T3 sequence (Q8VCI5 1-299): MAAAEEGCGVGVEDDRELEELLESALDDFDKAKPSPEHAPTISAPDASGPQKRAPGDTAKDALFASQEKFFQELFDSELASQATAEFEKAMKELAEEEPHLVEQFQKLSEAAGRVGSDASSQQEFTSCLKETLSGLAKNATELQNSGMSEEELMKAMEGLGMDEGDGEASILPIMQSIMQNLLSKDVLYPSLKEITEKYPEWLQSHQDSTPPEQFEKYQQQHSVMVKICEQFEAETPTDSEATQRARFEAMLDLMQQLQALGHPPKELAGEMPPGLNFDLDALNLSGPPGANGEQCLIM
Summary of the method: as §1

T1 sequence (E9Q0C6 whole entry): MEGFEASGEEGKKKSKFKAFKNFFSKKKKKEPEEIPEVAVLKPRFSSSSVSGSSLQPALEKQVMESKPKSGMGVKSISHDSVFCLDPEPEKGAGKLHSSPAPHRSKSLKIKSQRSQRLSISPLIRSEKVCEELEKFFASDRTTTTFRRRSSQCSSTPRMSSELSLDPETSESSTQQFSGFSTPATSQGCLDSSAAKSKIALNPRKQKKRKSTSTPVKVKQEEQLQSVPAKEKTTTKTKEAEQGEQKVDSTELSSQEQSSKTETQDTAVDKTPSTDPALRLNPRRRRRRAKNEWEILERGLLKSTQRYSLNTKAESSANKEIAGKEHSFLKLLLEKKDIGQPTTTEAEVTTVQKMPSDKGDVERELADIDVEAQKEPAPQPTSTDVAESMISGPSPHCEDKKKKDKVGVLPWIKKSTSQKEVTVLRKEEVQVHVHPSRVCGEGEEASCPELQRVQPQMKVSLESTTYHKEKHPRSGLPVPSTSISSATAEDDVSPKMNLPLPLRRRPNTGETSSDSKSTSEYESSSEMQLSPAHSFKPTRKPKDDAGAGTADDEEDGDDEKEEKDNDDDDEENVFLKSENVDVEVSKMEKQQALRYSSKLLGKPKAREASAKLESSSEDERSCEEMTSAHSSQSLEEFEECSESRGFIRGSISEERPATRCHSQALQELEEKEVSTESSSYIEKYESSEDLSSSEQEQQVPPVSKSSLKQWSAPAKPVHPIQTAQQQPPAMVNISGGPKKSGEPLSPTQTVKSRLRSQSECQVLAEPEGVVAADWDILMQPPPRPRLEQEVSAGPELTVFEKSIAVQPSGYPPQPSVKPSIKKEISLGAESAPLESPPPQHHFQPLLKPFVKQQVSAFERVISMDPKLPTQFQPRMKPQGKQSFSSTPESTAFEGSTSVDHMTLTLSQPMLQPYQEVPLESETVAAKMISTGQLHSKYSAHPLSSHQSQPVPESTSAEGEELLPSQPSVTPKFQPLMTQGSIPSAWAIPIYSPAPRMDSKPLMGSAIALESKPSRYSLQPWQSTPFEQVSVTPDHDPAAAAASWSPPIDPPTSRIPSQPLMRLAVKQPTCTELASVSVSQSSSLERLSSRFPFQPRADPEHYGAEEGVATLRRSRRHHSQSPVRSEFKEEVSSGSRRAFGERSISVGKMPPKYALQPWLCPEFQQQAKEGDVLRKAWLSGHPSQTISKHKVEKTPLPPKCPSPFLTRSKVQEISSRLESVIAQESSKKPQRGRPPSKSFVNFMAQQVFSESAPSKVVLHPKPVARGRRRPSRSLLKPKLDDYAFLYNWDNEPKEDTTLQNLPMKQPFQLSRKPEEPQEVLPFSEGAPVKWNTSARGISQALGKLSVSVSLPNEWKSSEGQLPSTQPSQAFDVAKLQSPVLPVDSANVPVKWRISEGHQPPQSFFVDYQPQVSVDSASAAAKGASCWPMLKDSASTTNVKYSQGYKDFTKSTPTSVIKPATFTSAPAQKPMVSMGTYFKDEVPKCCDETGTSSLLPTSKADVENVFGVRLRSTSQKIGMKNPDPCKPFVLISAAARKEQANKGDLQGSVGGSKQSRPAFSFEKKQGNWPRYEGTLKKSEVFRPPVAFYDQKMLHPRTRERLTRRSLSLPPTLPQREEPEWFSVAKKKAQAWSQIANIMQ

B1: irisin: secreted cleaved form of FNDC5; recombinant human/mouse irisin with C-terminal his tag produced in HEK293 cells (protein)
chain: DSPSAPVNVTVRHLKANSAVVSWDVLEDEVVIGFAISQQKKDVRMLRFIQEVNTTTRSCALWDLEEDTEYIVHVQAISIQGQSPASEPVLFKTPREAEKMASKNKDEVTMKE
modifications: left off: small tags and cut ends
notes: secreted cleaved form of FNDC5; recombinant human/mouse irisin with C-terminal his tag produced in HEK293 cells
For B1, the TMT signal-to-noise ratio [1] was 8.647, the “irisin/adipsin TMT signal-to-noise ratio” value [1] was 0.039 and the irsin/adipsin [2] was 4.05. For the same molecule, the TMT signal-to-noise ratio [3] was 23.3696 and the “irisin/adipsin TMT signal-to-noise ratio” value [3] was 0.386.
